We go through two molecules from article PMC2755179 (Autophagy, 2008).

Usually Kd stands for the concentration at which binding is half-saturated. Higher therefore signals a looser complex.

Common to all, as to assay: ITC
For orientation: Isothermal titration calorimetry measures the heat released or taken up as one component is titrated into another.

One experiment deals with T1, γHV68 M11 (murine γ-herpesvirus 68, UniProt P89884 1-136).
T1 sequence: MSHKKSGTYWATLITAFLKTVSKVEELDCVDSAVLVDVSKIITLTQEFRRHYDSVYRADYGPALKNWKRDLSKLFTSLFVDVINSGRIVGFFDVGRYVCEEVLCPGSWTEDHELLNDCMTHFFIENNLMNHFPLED

A further experiment has as its target T2, KSHV Bcl-2 (Kaposi's sarcoma-associated HV, UniProt P90504).
T2 sequence: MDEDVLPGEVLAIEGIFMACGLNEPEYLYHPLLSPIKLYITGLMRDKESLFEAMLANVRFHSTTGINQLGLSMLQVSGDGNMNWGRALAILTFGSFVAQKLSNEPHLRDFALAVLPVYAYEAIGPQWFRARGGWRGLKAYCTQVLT

The target of a further experiment is cellular Bcl-2 (UniProt P10415 1-211).
Chain of cellular Bcl-2 (P10415 1-211): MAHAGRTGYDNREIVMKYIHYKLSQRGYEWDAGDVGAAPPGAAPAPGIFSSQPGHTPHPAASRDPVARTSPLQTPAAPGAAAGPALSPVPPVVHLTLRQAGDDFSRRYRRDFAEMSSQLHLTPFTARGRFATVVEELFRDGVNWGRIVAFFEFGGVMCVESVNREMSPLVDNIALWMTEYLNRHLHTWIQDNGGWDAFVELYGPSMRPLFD

B1: MBP•Beclin 1(1–135)•His6 (domain or fragment, human, UniProt Q14457 1-135, looked up)
chain: MEGSKTSNNSTMQVSFVCQRCSQPLKLDTSFKILDRVTIQELTAPLLTTAQAKPGETQEEETNSGEEPFIETPRQDGVSRRFIPPARMMSTESANSFTLIGEASDGGTMENLSRRLKVTGDLFDIMSGQTDVDHP
As to B1, the dissociation constant (Kd) in the experiment with γHV68 M11 stood at 0.2 µM; in the experiment with KSHV Bcl-2 it was 54.2 µM; with cellular Bcl-2, 8.6 µM.

Take DGGTMENLSRRLKVTGDLFDIMSGQT (peptide, UniProt Q14457 105-130, looked up) [Beclin 1 BH3 domain]: the results for the Kd with γHV68 M11, with KSHV Bcl-2 and with cellular Bcl-2 were 1.1 µM, 13.3 µM and 8 µM, respectively.
